According to publication PMC6720452, “Structural Basis for Recruitment of DAPK1 to the KLHL20 E3 Ligase” (Structure(London, England:1993), 2019):

What was measured:
FLAG-KLHL20 Kelch domain = experiment: Co-immunoprecipitation of KLHL20 and DAPK1 in HEK293T cells; format: cell-based, human; conditions: FLAG-KLHL20 Kelch domain and HA-DAPK1 full-length co-transfected, 40 hours after transfection, anti-FLAG IP, Western blot
Text: (§1) To confirm the identified “LPDLV” motif as a regulatory site for DAPK1 interaction and degradation, we performed immunoprecipitation and cycloheximide (CHX) chase experiments in HEK293T cells. […] We then performed a CHX chase assay to compare the degradation of DAPK1 variants in the presence or absence of full-length KLHL20.
Figure 6 Mutations in the DAPK1 “LPDLV” Motif Impair DAPK1 Binding and Degradation by KLHL20 (A) Full-length DAPK1 variants and KLHL20 Kelch domain were co-transfected into HEK293T cells as indicated. FLAG-KLHL20 Kelch domain was immunoprecipitated (IP) with anti-FLAG antibody. DAPK1 WT was robustly co-purified with KLHL20, whereas DAPK1 mutant was only recovered at the background level of the beads alone. (B) DAPK1 variants were transfected into HEK293T cells with or without full-length KLHL20 as indicated. […] DAPK1 protein levels were detected by western blot and normalized to GAPDH. (C) Quantitation of (B). […]
HEK293T cells were cultured in high glucose Dulbecco’s Modified Eagle’s Medium (Sigma-Aldrich) with 5% Penicillin Streptomycin (ThermoFisher) and 10% Fetal Bovine Serum (Sigma-Aldrich) inside a 5% CO2 incubator at 37°C. […] Results were analyzed using Western blotting (Anti-Flag antibody, Sigma-Aldrich, F1804; Anti-HA antibody, Biolegend, 901501; Anti-Myc antibody, Cell signalling, 2040S).

full-length KLHL20 = experiment: Cycloheximide chase assay in HEK293T cells; format: cell-based, human; conditions: 100 μg/mL cycloheximide, 0-6h; for Half-life / degradation of DAPK1 on KLHL20 co-expression: with vs without full-length KLHL20, Western blot normalized to GAPDH
Text: as §1
Figure 6 Mutations in the DAPK1 “LPDLV” Motif Impair DAPK1 Binding and Degradation by KLHL20 (A) Full-length DAPK1 variants and KLHL20 Kelch domain were co-transfected into HEK293T cells as indicated. FLAG-KLHL20 Kelch domain was immunoprecipitated (IP) with anti-FLAG antibody. DAPK1 WT was robustly co-purified with KLHL20, whereas DAPK1 mutant was only recovered at the background level of the beads alone. (B) DAPK1 variants were transfected into HEK293T cells with or without full-length KLHL20 as indicated. At 24 h post transfection, cells were incubated with 100 μg/mL cycloheximide (CHX) and harvested at different time points as indicated. DAPK1 protein levels were detected by western blot and normalized to GAPDH. (C) Quantitation of (B).
For structural and biophysical studies, the Kelch domains of human KLHL20 (Uniprot Q9Y2M5 isoform 1, M303-E605) and KLHL3 (Uniprot Q9UH77 isoform 1, residues S298–L587) were cloned using ligation-independent cloning into the bacterial expression vector pNIC28-Bsa4 (GenBank accession number EF198106), which provides for an N-terminal hexahistidine tag and TEV cleavage site. For cellular assays, full length DAPK1 was cloned into pcDNA3.1(+) providing an N-terminal HA tag. The mutant DAPK1 (1336-‘LPDLV’ motif mutated to ‘LPAAV’) was created in the same vector by site directed mutagenesis. […]
HEK293T cells were cultured as described above until 60% confluency. […] Results were analyzed using Western blotting with corresponding antibodies. GAPDH level in each sample was also detected for control (anti-GAPDH antibody; Thermo Fisher, MA5-15738). Western blot band intensities were quantified using Image Studio Lite Ver 5.2 and normalized for the GADPH control.

Row | Molecule | Recovery of DAPK1 in KLHL20 immunoprecipitation (FLAG-KLHL20 Kelch domain) | Half-life / degradation of DAPK1 on KLHL20 co-expression (full-length KLHL20) | Half-life of DAPK1 mutant compared with DAPK1 WT (full-length KLHL20; with or without full-length KLHL20, Western blot normalized to GAPDH)
1 | DAPK1 WT: full-length HA-DAPK1 wild-type (protein, left off: HA, N-terminal, kept, full-length HA-DAPK1 wild-type) MTVFRQENVDDYYDTGEELGSGQFAVVKKCREKSTGLQYAAKFIKKRRTKSSRRGVSREDIEREVSILKEIQHPNVITLHEVYENKTDVILILELVAGGELFDFLAEKESLTEEEATEFLKQILNGVYYLHSLQIAHFDLKPENIMLLDRNVPKPRIKIIDFGLAHKIDFGNEFKNIFGTPEFVAPEIVNYEPLGLEADMWSIGVITYILLSGASPFLGDTKQETLANVSAVNYEFEDEYFSNTSALAKDFIRRLLVKDPKKRMTIQDSLQHPWIKPKDTQQALSRKASAVNMEKFKKFAARKKWKQSVRLISLCQRLSRSFLSRSNMSVARSDDTLDEEDSFVMKAIIHAINDDNVPGLQHLLGSLSNYDVNQPNKHGTPPLLIAAGCGNIQILQLLIKRGSRIDVQDKGGSNAVYWAARHGHVDTLKFLSENKCPLDVKDKSGEMALHVAARYGHADVAQLLCSFGSNPNIQDKEEETPLHCAAWHGYYSVAKALCEAGCNVNIKNREGETPLLTASARGYHDIVECLAEHGADLNACDKDGHIALHLAVRRCQMEVIKTLLSQGCFVDYQDRHGNTPLHVACKDGNMPIVVALCEANCNLDISNKYGRTPLHLAANNGILDVVRYLCLMGASVEALTTDGKTAEDLARSEQHEHVAGLLARLRKDTHRGLFIQQLRPTQNLQPRIKLKLFGHSGSGKTTLVESLKCGLLRSFFRRRRPRLSSTNSSRFPPSPLASKPTVSVSINNLYPGCENVSVRSRSMMFEPGLTKGMLEVFVAPTHHPHCSADDQSTKAIDIQNAYLNGVGDFSVWEFSGNPVYFCCYDYFAANDPTSIHVVVFSLEEPYEIQLNQVIFWLSFLKSLVPVEEPIAFGGKLKNPLQVVLVATHADIMNVPRPAGGEFGYDKDTSLLKEIRNRFGNDLHISNKLFVLDAGASGSKDMKVLRNHLQEIRSQIVSVCPPMTHLCEKIISTLPSWRKLNGPNQLMSLQQFVYDVQDQLNPLASEEDLRRIAQQLHSTGEINIMQSETVQDVLLLDPRWLCTNVLGKLLSVETPRALHHYRGRYTVEDIQRLVPDSDVEELLQILDAMDICARDLSSGTMVDVPALIKTDNLHRSWADEEDEVMVYGGVRIVPVEHLTPFPCGIFHKVQVNLCRWIHQQSTEGDADIRLWVNGCKLANRGAELLVLLVNHGQGIEVQVRGLETEKIKCCLLLDSVCSTIENVMATTLPGLLTVKHYLSPQQLREHHEPVMIYQPRDFFRAQTLKETSLTNTMGGYKESFSSIMCFGCHDVYSQASLGMDIHASDLNLLTRRKLSRLLDPPDPLGKDWCLLAMNLGLPDLVAKYNTSNGAPKDFLPSPLHALLREWTTYPESTVGTLMSKLRELGRRDAADFLLKASSVFKINLDGNGQEAYASSCNSGTSYNSISSVVSR | robustly bound to KLHL20 | striking reduction in the half-life | –
2 | DAPK1 mutant: full-length DAPK1 mutant in which the critical 1,336-“LPDLV” motif was mutated to “LPAAV” (protein, left off: HA, N-terminal, kept) MTVFRQENVDDYYDTGEELGSGQFAVVKKCREKSTGLQYAAKFIKKRRTKSSRRGVSREDIEREVSILKEIQHPNVITLHEVYENKTDVILILELVAGGELFDFLAEKESLTEEEATEFLKQILNGVYYLHSLQIAHFDLKPENIMLLDRNVPKPRIKIIDFGLAHKIDFGNEFKNIFGTPEFVAPEIVNYEPLGLEADMWSIGVITYILLSGASPFLGDTKQETLANVSAVNYEFEDEYFSNTSALAKDFIRRLLVKDPKKRMTIQDSLQHPWIKPKDTQQALSRKASAVNMEKFKKFAARKKWKQSVRLISLCQRLSRSFLSRSNMSVARSDDTLDEEDSFVMKAIIHAINDDNVPGLQHLLGSLSNYDVNQPNKHGTPPLLIAAGCGNIQILQLLIKRGSRIDVQDKGGSNAVYWAARHGHVDTLKFLSENKCPLDVKDKSGEMALHVAARYGHADVAQLLCSFGSNPNIQDKEEETPLHCAAWHGYYSVAKALCEAGCNVNIKNREGETPLLTASARGYHDIVECLAEHGADLNACDKDGHIALHLAVRRCQMEVIKTLLSQGCFVDYQDRHGNTPLHVACKDGNMPIVVALCEANCNLDISNKYGRTPLHLAANNGILDVVRYLCLMGASVEALTTDGKTAEDLARSEQHEHVAGLLARLRKDTHRGLFIQQLRPTQNLQPRIKLKLFGHSGSGKTTLVESLKCGLLRSFFRRRRPRLSSTNSSRFPPSPLASKPTVSVSINNLYPGCENVSVRSRSMMFEPGLTKGMLEVFVAPTHHPHCSADDQSTKAIDIQNAYLNGVGDFSVWEFSGNPVYFCCYDYFAANDPTSIHVVVFSLEEPYEIQLNQVIFWLSFLKSLVPVEEPIAFGGKLKNPLQVVLVATHADIMNVPRPAGGEFGYDKDTSLLKEIRNRFGNDLHISNKLFVLDAGASGSKDMKVLRNHLQEIRSQIVSVCPPMTHLCEKIISTLPSWRKLNGPNQLMSLQQFVYDVQDQLNPLASEEDLRRIAQQLHSTGEINIMQSETVQDVLLLDPRWLCTNVLGKLLSVETPRALHHYRGRYTVEDIQRLVPDSDVEELLQILDAMDICARDLSSGTMVDVPALIKTDNLHRSWADEEDEVMVYGGVRIVPVEHLTPFPCGIFHKVQVNLCRWIHQQSTEGDADIRLWVNGCKLANRGAELLVLLVNHGQGIEVQVRGLETEKIKCCLLLDSVCSTIENVMATTLPGLLTVKHYLSPQQLREHHEPVMIYQPRDFFRAQTLKETSLTNTMGGYKESFSSIMCFGCHDVYSQASLGMDIHASDLNLLTRRKLSRLLDPPDPLGKDWCLLAMNLGLPAAVAKYNTSNGAPKDFLPSPLHALLREWTTYPESTVGTLMSKLRELGRRDAADFLLKASSVFKINLDGNGQEAYASSCNSGTSYNSISSVVSR | only recovered at a low background level | strikingly resistant to KLHL20 co-expression | exceeded that of DAPK1 WT under any of the conditions above
